Results published in patent publication US20180155451A1 (published 2018).

T1: FcγRIIa R (human FcγRIIa, allotype R, Arg at position 131), extracellular domain with C-terminal His tag (human, UniProt P12318 34-217)
T1 construct: extracellular domain; expressed in FreeStyle293 cells; analyte in Biacore; also called 2aR; FcgRIIa R
T1 sequence (looked up): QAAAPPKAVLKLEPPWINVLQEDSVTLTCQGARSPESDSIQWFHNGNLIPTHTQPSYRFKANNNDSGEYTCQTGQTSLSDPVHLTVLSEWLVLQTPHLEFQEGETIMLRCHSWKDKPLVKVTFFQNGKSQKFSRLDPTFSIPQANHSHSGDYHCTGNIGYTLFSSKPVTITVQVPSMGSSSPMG


biological target: T1, FcγRIIa R (human FcγRIIa, allotype R, …); assay: SPR (Biacore), relative binding vs GpH7-A5/GpH7-B3/GpL16-k0
Procedure: Analysis of interaction between objective antibody and the FcγR was carried out using Biacore T100 (GE Healthcare). HBS-EP+ (GE Healthcare) was used as the running buffer, and the measurement temperature was set to 25° C. Chips produced by immobilizing the antigen peptide by the amine coupling method to a Series S Sencor Chip CM5 (GE Healthcare), or alternatively, chips produced by allowing preliminarily biotinylated antigen peptides to interact with and immobilize onto a Series S Sensor Chip SA (certified) (GE Healthcare) were used. Antibodies of interest were captured onto an antigen peptide-immobilized chip, and allowed to interact to each FcγR diluted with running buffer. To regenerate and repeatedly use the chip, the antibodies captured on the chip were washed off by reacting 10 mM glycine-HCl, pH 1.5.
The FcγR-binding activity of each antibody was assessed primarily using as an indicator the FcγR-binding activity and dissociation constant for FcγR.

| Binder | He/Con_2aR |
| --- | --- |
| GpH7-A5/GpH7-B3 variant S337_19Q/GpL16-k0 (antibody, human IgG1, kappa, heterodimerized antibody, mutation in one H chain only; also called He Ab) heavy 1: not shown heavy 2: not shown light: DIVMTQSPLSLPVTPGEPASISCQASESLVHSNRNTYLHWYLQKPGQSPQLLIYKVSNRFSGVPDRFSGSGSGTDFTLKISRVEAEDVGVYYCSQNTHVPPTFGQGTKVEIERTVAAPSVFIFPPSDEQLKSGTASVVCLLNNFYPREAKVQWKVDNALQSGNSQESVTEQDSKDSTYSLSSTLTLSKADYEKHKVYACEVTHQGLSSPVTKSFNRGEC | 106 relative, control = 100 |
| GpH7-A5/GpH7-B3 variant S337_15Y/GpL16-k0 (antibody, human IgG1, kappa, heterodimerized antibody, mutation in one H chain only; also called He Ab) heavy 1: not shown heavy 2: not shown light: DIVMTQSPLSLPVTPGEPASISCQASESLVHSNRNTYLHWYLQKPGQSPQLLIYKVSNRFSGVPDRFSGSGSGTDFTLKISRVEAEDVGVYYCSQNTHVPPTFGQGTKVEIERTVAAPSVFIFPPSDEQLKSGTASVVCLLNNFYPREAKVQWKVDNALQSGNSQESVTEQDSKDSTYSLSSTLTLSKADYEKHKVYACEVTHQGLSSPVTKSFNRGEC | 105 relative, control = 100 |
| GpH7-A5/GpH7-B3 variant S337_12R/GpL16-k0 (antibody, human IgG1, kappa, heterodimerized antibody, mutation in one H chain only; also called He Ab) heavy 1: not shown heavy 2: not shown light: DIVMTQSPLSLPVTPGEPASISCQASESLVHSNRNTYLHWYLQKPGQSPQLLIYKVSNRFSGVPDRFSGSGSGTDFTLKISRVEAEDVGVYYCSQNTHVPPTFGQGTKVEIERTVAAPSVFIFPPSDEQLKSGTASVVCLLNNFYPREAKVQWKVDNALQSGNSQESVTEQDSKDSTYSLSSTLTLSKADYEKHKVYACEVTHQGLSSPVTKSFNRGEC | 107 relative, control = 100 |
| GpH7-A5/GpH7-B3 variant S337_18N/GpL16-k0 (antibody, human IgG1, kappa, heterodimerized antibody, mutation in one H chain only; also called He Ab) heavy 1: not shown heavy 2: not shown light: DIVMTQSPLSLPVTPGEPASISCQASESLVHSNRNTYLHWYLQKPGQSPQLLIYKVSNRFSGVPDRFSGSGSGTDFTLKISRVEAEDVGVYYCSQNTHVPPTFGQGTKVEIERTVAAPSVFIFPPSDEQLKSGTASVVCLLNNFYPREAKVQWKVDNALQSGNSQESVTEQDSKDSTYSLSSTLTLSKADYEKHKVYACEVTHQGLSSPVTKSFNRGEC | 107 relative, control = 100 |
| GpH7-A5/GpH7-B3 variant S337_10E/GpL16-k0 (antibody, human IgG1, kappa, heterodimerized antibody, mutation in one H chain only; also called He Ab) heavy 1: not shown heavy 2: not shown light: DIVMTQSPLSLPVTPGEPASISCQASESLVHSNRNTYLHWYLQKPGQSPQLLIYKVSNRFSGVPDRFSGSGSGTDFTLKISRVEAEDVGVYYCSQNTHVPPTFGQGTKVEIERTVAAPSVFIFPPSDEQLKSGTASVVCLLNNFYPREAKVQWKVDNALQSGNSQESVTEQDSKDSTYSLSSTLTLSKADYEKHKVYACEVTHQGLSSPVTKSFNRGEC | 112 relative, control = 100 |
| GpH7-A5/GpH7-B3 variant S337_08L/GpL16-k0 (antibody, human IgG1, kappa, heterodimerized antibody, mutation in one H chain only; also called He Ab) heavy 1: not shown heavy 2: not shown light: DIVMTQSPLSLPVTPGEPASISCQASESLVHSNRNTYLHWYLQKPGQSPQLLIYKVSNRFSGVPDRFSGSGSGTDFTLKISRVEAEDVGVYYCSQNTHVPPTFGQGTKVEIERTVAAPSVFIFPPSDEQLKSGTASVVCLLNNFYPREAKVQWKVDNALQSGNSQESVTEQDSKDSTYSLSSTLTLSKADYEKHKVYACEVTHQGLSSPVTKSFNRGEC | 107 relative, control = 100 |

Second part, the binder after the results:

| He/Con_2aR | Binder |
| --- | --- |
| 105 relative, control = 100 | GpH7-A5/GpH7-B3 variant S337_06M/GpL16-k0 (antibody, human IgG1, kappa, heterodimerized antibody, mutation in one H chain only; also called He Ab) heavy 1: not shown heavy 2: not shown light: DIVMTQSPLSLPVTPGEPASISCQASESLVHSNRNTYLHWYLQKPGQSPQLLIYKVSNRFSGVPDRFSGSGSGTDFTLKISRVEAEDVGVYYCSQNTHVPPTFGQGTKVEIERTVAAPSVFIFPPSDEQLKSGTASVVCLLNNFYPREAKVQWKVDNALQSGNSQESVTEQDSKDSTYSLSSTLTLSKADYEKHKVYACEVTHQGLSSPVTKSFNRGEC |
| 103 relative, control = 100 | GpH7-A5/GpH7-B3 variant S337_11K/GpL16-k0 (antibody, human IgG1, kappa, heterodimerized antibody, mutation in one H chain only; also called He Ab) heavy 1: not shown heavy 2: not shown light: DIVMTQSPLSLPVTPGEPASISCQASESLVHSNRNTYLHWYLQKPGQSPQLLIYKVSNRFSGVPDRFSGSGSGTDFTLKISRVEAEDVGVYYCSQNTHVPPTFGQGTKVEIERTVAAPSVFIFPPSDEQLKSGTASVVCLLNNFYPREAKVQWKVDNALQSGNSQESVTEQDSKDSTYSLSSTLTLSKADYEKHKVYACEVTHQGLSSPVTKSFNRGEC |
| 110 relative, control = 100 | GpH7-A5/GpH7-B3 variant S337_20W/GpL16-k0 (antibody, human IgG1, kappa, heterodimerized antibody, mutation in one H chain only; also called He Ab) heavy 1: not shown heavy 2: not shown light: DIVMTQSPLSLPVTPGEPASISCQASESLVHSNRNTYLHWYLQKPGQSPQLLIYKVSNRFSGVPDRFSGSGSGTDFTLKISRVEAEDVGVYYCSQNTHVPPTFGQGTKVEIERTVAAPSVFIFPPSDEQLKSGTASVVCLLNNFYPREAKVQWKVDNALQSGNSQESVTEQDSKDSTYSLSSTLTLSKADYEKHKVYACEVTHQGLSSPVTKSFNRGEC |
| 109 relative, control = 100 | GpH7-A5/GpH7-B3 variant T335_07I/GpL16-k0 (antibody, human IgG1, kappa, heterodimerized antibody, mutation in one H chain only; also called He Ab) heavy 1: not shown heavy 2: not shown light: DIVMTQSPLSLPVTPGEPASISCQASESLVHSNRNTYLHWYLQKPGQSPQLLIYKVSNRFSGVPDRFSGSGSGTDFTLKISRVEAEDVGVYYCSQNTHVPPTFGQGTKVEIERTVAAPSVFIFPPSDEQLKSGTASVVCLLNNFYPREAKVQWKVDNALQSGNSQESVTEQDSKDSTYSLSSTLTLSKADYEKHKVYACEVTHQGLSSPVTKSFNRGEC |
| 109 relative, control = 100 | GpH7-A5/GpH7-B3 variant S337_16H/GpL16-k0 (antibody, human IgG1, kappa, heterodimerized antibody, mutation in one H chain only; also called He Ab) heavy 1: not shown heavy 2: not shown light: DIVMTQSPLSLPVTPGEPASISCQASESLVHSNRNTYLHWYLQKPGQSPQLLIYKVSNRFSGVPDRFSGSGSGTDFTLKISRVEAEDVGVYYCSQNTHVPPTFGQGTKVEIERTVAAPSVFIFPPSDEQLKSGTASVVCLLNNFYPREAKVQWKVDNALQSGNSQESVTEQDSKDSTYSLSSTLTLSKADYEKHKVYACEVTHQGLSSPVTKSFNRGEC |
| 104 relative, control = 100 | GpH7-A5/GpH7-B3 variant T335_05P/GpL16-k0 (antibody, human IgG1, kappa, heterodimerized antibody, mutation in one H chain only; also called He Ab) heavy 1: not shown heavy 2: not shown light: DIVMTQSPLSLPVTPGEPASISCQASESLVHSNRNTYLHWYLQKPGQSPQLLIYKVSNRFSGVPDRFSGSGSGTDFTLKISRVEAEDVGVYYCSQNTHVPPTFGQGTKVEIERTVAAPSVFIFPPSDEQLKSGTASVVCLLNNFYPREAKVQWKVDNALQSGNSQESVTEQDSKDSTYSLSSTLTLSKADYEKHKVYACEVTHQGLSSPVTKSFNRGEC |
| 102 relative, control = 100 | GpH7-A5/GpH7-B3 variant T335_02A/GpL16-k0 (antibody, human IgG1, kappa, heterodimerized antibody, mutation in one H chain only; also called He Ab) heavy 1: not shown heavy 2: not shown light: DIVMTQSPLSLPVTPGEPASISCQASESLVHSNRNTYLHWYLQKPGQSPQLLIYKVSNRFSGVPDRFSGSGSGTDFTLKISRVEAEDVGVYYCSQNTHVPPTFGQGTKVEIERTVAAPSVFIFPPSDEQLKSGTASVVCLLNNFYPREAKVQWKVDNALQSGNSQESVTEQDSKDSTYSLSSTLTLSKADYEKHKVYACEVTHQGLSSPVTKSFNRGEC |
| 115 relative, control = 100 | GpH7-A5/GpH7-B3 variant S337_09D/GpL16-k0 (antibody, human IgG1, kappa, heterodimerized antibody, mutation in one H chain only; also called He Ab) heavy 1: not shown heavy 2: not shown light: DIVMTQSPLSLPVTPGEPASISCQASESLVHSNRNTYLHWYLQKPGQSPQLLIYKVSNRFSGVPDRFSGSGSGTDFTLKISRVEAEDVGVYYCSQNTHVPPTFGQGTKVEIERTVAAPSVFIFPPSDEQLKSGTASVVCLLNNFYPREAKVQWKVDNALQSGNSQESVTEQDSKDSTYSLSSTLTLSKADYEKHKVYACEVTHQGLSSPVTKSFNRGEC |
| 104 relative, control = 100 | GpH7-A5/GpH7-B3 variant T335_01G/GpL16-k0 (antibody, human IgG1, kappa, heterodimerized antibody, mutation in one H chain only; also called He Ab) heavy 1: not shown heavy 2: not shown light: DIVMTQSPLSLPVTPGEPASISCQASESLVHSNRNTYLHWYLQKPGQSPQLLIYKVSNRFSGVPDRFSGSGSGTDFTLKISRVEAEDVGVYYCSQNTHVPPTFGQGTKVEIERTVAAPSVFIFPPSDEQLKSGTASVVCLLNNFYPREAKVQWKVDNALQSGNSQESVTEQDSKDSTYSLSSTLTLSKADYEKHKVYACEVTHQGLSSPVTKSFNRGEC |
| 109 relative, control = 100 | GpH7-A5/GpH7-B3 variant S337_07I/GpL16-k0 (antibody, human IgG1, kappa, heterodimerized antibody, mutation in one H chain only; also called He Ab) heavy 1: not shown heavy 2: not shown light: DIVMTQSPLSLPVTPGEPASISCQASESLVHSNRNTYLHWYLQKPGQSPQLLIYKVSNRFSGVPDRFSGSGSGTDFTLKISRVEAEDVGVYYCSQNTHVPPTFGQGTKVEIERTVAAPSVFIFPPSDEQLKSGTASVVCLLNNFYPREAKVQWKVDNALQSGNSQESVTEQDSKDSTYSLSSTLTLSKADYEKHKVYACEVTHQGLSSPVTKSFNRGEC |
